In the supplement of paper PMC7877785:
± gives the uncertainty stated by the source.

Test: self-splicing fitness, log relative to wild type (ln ratio); higher = more splicing; Tetrahymena group I intron in knt gene, E. coli kanamycin selection, DiMSum; sequences stand for … in CUCUCU…GGAGGGAAAAGUUAUCAGGCAUGCACCUGGUAGCUAGUCUUUAAACCAAUAGAUUGCAUCGGUUUAAAAGGCAAGACCGUCAAAUUGCGGGAAAGGGGUCAACAGCCGUUCAGUACCAAGUCUCAGGGGAAACUUUGAGAUGGCCUUGCAAAGGGUAUGGUAAUAAGCUGACGGACAUGGUCCUAACCACGCAGCCAAGUCCUAAGUCAACAGAUCUUCUGUUGAUAUGGAUGCAGUUCACAGACUAAAUGUCGGUCGGGGAAGAUGUAUUCUUCUCAUAAGAUAUAGUCGGACCUCUCCUUAAUGGGAGCUAGCGGAUGAAGUGAUGCAACACUGGAGCCGCUGGGAACUAAUUUGUAUGCGAAAGUAUAUUGAUUAGUUUUGGAGUACUCGUGGUCG
How it was run: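 Six replicate transformations of E. coli BL21(DE3) with a pET-22b(+) library were grown overnight at 37°C or 30°C. The library randomised all eight P1ex-region intron nucleotides, the intron lying in the knt kanamycin-resistance gene, and plates were LB agar with or without 25 μg/mL kanamycin plus 100 μg/mL carbenicillin, 50 μM IPTG and 0.2% rhamnose. Pooled colonies were amplicon-sequenced on an Illumina HiSeq 2500, and fitness is the DiMSum error-weighted combination of wild-type-normalised replicate fold changes, kanamycin versus none.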

Row | Sequence | self-splicing fitness (ln) (30 °C) | self-splicing fitness (ln) (37 °C)
1 | CGGUAGCAAUAUUACGCCUC | -2.36 ± 0.38 | -0.282 ± 0.29
2 | CGGUAGCAAUAUUACGCCUU | -0.779 ± 0.11 | -0.542 ± 0.14
3 | CGGUAGCAAUAUUACGCGCG | -2.49 ± 0.31 | -1.87 ± 0.22
4 | CGGUAGCAAUAUUACGCGGU | -3.28 ± 0.22 | -2.96 ± 0.16
5 | CGGUAGCAAUAUUACGCUCA | -0.279 ± 0.15 | -0.399 ± 0.21
6 | CGGUAGCAAUAUUACGGACA | -1.91 ± 0.32 | -1.34 ± 0.29
7 | CGGUAGCAAUAUUACGGAGU | -3.33 ± 0.28 | -3.27 ± 0.35
8 | CGGUAGCAAUAUUACGGCAA | -2.22 ± 0.19 | -2.52 ± 0.28
9 | CGGUAGCAAUAUUACGGCUA | -1.59 ± 0.2 | -2.01 ± 0.28
10 | CGGUAGCAAUAUUACGGGCA | -1.75 ± 0.24 | -0.528 ± 0.2
11 | CGGUAGCAAUAUUACGGGCU | -3.22 ± 0.13 | -1.82 ± 0.14
12 | CGGUAGCAAUAUUACGGUCC | -2.24 ± 0.15 | -0.321 ± 0.17
13 | CGGUAGCAAUAUUACGUCUA | -0.754 ± 0.073 | -0.163 ± 0.081
14 | CGGUAGCAAUAUUACGUGUC | -2.99 ± 0.34 | -2.5 ± 0.21
15 | CGUAAGCAAUAUUACGAAGA | -3.07 ± 0.31 | 
16 | CGUAAGCAAUAUUACGAAGC | -2.95 ± 0.23 | -2.73 ± 0.26
17 | CGUAAGCAAUAUUACGAAUG | -0.363 ± 0.081 | -0.692 ± 0.088
18 | CGUAAGCAAUAUUACGACAA |  | -1.32 ± 0.23
19 | CGUAAGCAAUAUUACGACCC | -2.71 ± 0.38 | -2.23 ± 0.23
20 | CGUAAGCAAUAUUACGAGGA |  | -1.75 ± 0.33
21 | CGUAAGCAAUAUUACGAGUU | -3.38 ± 0.17 | -2.6 ± 0.23
22 | CGUAAGCAAUAUUACGCAAU | -3.61 ± 0.24 | -2.64 ± 0.23
23 | CGUAAGCAAUAUUACGCACA | -1.37 ± 0.18 | -0.0497 ± 0.23
24 | CGUAAGCAAUAUUACGCAUU | -3.95 ± 0.28 | -2.68 ± 0.18
25 | CGUAAGCAAUAUUACGCGAU | -3.53 ± 0.2 | -1.98 ± 0.18

Row | Sequence | self-splicing fitness (ln) (30 °C) | self-splicing fitness (ln) (37 °C)
26 | CGUAAGCAAUAUUACGCGCC |  | -1.97 ± 0.35
27 | CGUAAGCAAUAUUACGCGGG | -2.35 ± 0.15 | -2.72 ± 0.25
28 | CGUAAGCAAUAUUACGCGGU | -1.99 ± 0.23 | -1.69 ± 0.38
29 | CGUAAGCAAUAUUACGCGUG | -1.79 ± 0.088 | -0.855 ± 0.12
30 | CGUAAGCAAUAUUACGCGUU | -3.69 ± 0.36 | -2.31 ± 0.32
31 | CGUAAGCAAUAUUACGGCGC | -2.21 ± 0.26 | -2.2 ± 0.42
32 | CGUAAGCAAUAUUACGGGCU |  | -1.92 ± 0.21
33 | CGUAAGCAAUAUUACGGUUA | -2.29 ± 0.12 | -1.72 ± 0.14
34 | CGUAAGCAAUAUUACGUCGU | -3.41 ± 0.16 | -1.63 ± 0.15
35 | CGUAAGCAAUAUUACGUGCG | -2.95 ± 0.17 | -2.17 ± 0.16
36 | CGUAAGCAAUAUUACGUGGC | -4.85 ± 0.36 | -2.39 ± 0.15
37 | CGUAAGCAAUAUUACGUGUG | -1.29 ± 0.063 | -0.745 ± 0.078
38 | CGUCAGCAAUAUUACGAAAC | -3.63 ± 0.32 | -1.6 ± 0.32
39 | CGUCAGCAAUAUUACGAACU | -0.352 ± 0.095 | -0.0116 ± 0.11
40 | CGUCAGCAAUAUUACGACGG | -0.836 ± 0.081 | -0.516 ± 0.12
41 | CGUCAGCAAUAUUACGAGCC | -2.25 ± 0.48 | 
42 | CGUCAGCAAUAUUACGAGGA | -2.27 ± 0.19 | -2.38 ± 0.28
43 | CGUCAGCAAUAUUACGCAAG | -0.161 ± 0.07 | -0.63 ± 0.091
44 | CGUCAGCAAUAUUACGCAAU | -1.37 ± 0.1 | -2.12 ± 0.24
45 | CGUCAGCAAUAUUACGCACA | -0.869 ± 0.09 | 0.0106 ± 0.13
46 | CGUCAGCAAUAUUACGCCCU | -1.89 ± 0.15 | -0.223 ± 0.23
47 | CGUCAGCAAUAUUACGCCGU | -2.49 ± 0.12 | 0.143 ± 0.11
48 | CGUCAGCAAUAUUACGCCUA | -2.32 ± 0.29 | -0.757 ± 0.18
49 | CGUCAGCAAUAUUACGCGAG | -4.12 ± 0.36 | -0.926 ± 0.17
